The values that follow are results of earlier work, collected in publication PMC12818765.

Targets include Lys96 (UniProt position 114, SVNCAKKIVSD); Lys33 (UniProt position 51, WVCAAKFESNF); Asp18 (UniProt position 36, KRHGLDNYRGY); Lys1 (UniProt position 19, LAALGKVFGRC); Asp52 (UniProt position 70, TDGSTDYGILQ); Asp87 (UniProt position 105, ALLSSDITASV); Asp119 (UniProt position 137, RCKGTDVQAWI); Lys97 (UniProt position 115, VNCAKKIVSDG); Cterm129 (UniProt position 147, IRGCRL-----); Asp48 (UniProt position 66, TNRNTDGSTDY); His15 (UniProt position 33, AAMKRHGLDNY); Lys116 (UniProt position 134, WRNRCKGTDVQ); Asp66 (UniProt position 84, RWWCNDGRTPG); Asp101 (UniProt position 119, KKIVSDGNGMN); Tyr53 (UniProt position 71, DGSTDYGILQI); Lys13 (UniProt position 31, LAAAMKRHGLD); Tyr23 (UniProt position 41, DNYRGYSLGNW); Nterm1 (UniProt position 19, LAALGKVFGRC); Tyr20 (UniProt position 38, HGLDNYRGYSL); Glu7 (UniProt position 25, VFGRCELAAAM); Glu35 (UniProt position 53, CAAKFESNFNT).

The target in a further data set is Glu10 (UniProt position 92, KKLHKEPATLI). Conditions: not stated.
A further data set addresses Glu101 (UniProt position 183, GKMVNEALVRQ). Conditions: not stated.
In the next data set the target is Glu135 (UniProt position 217, AQAKKEKLNIW). As to conditions: not stated.
A further data set concerns the target Glu122 (UniProt position 204, PNNTHEQHLRK). Conditions: not stated.
The next data set concerns the target Glu129 (UniProt position 211, HLRKSEAQAKK). Conditions: not stated.
The next data set concerns the target Glu67 (UniProt position 149, TKKMVENAKKI). As to conditions: not stated.
Another data set has as its target Glu43 (UniProt position 125, LVDTPETKHPK). As to conditions: not stated.
For a further data set, the target named is Asp40 (UniProt position 122, RLLLVDTPETK). As to conditions: not stated.
The next data set addresses Asp95 (UniProt position 177, AYIYADGKMVN). As to conditions: not stated.
A further data set addresses Glu75 (UniProt position 157, KKIEVEFDKGQ). Conditions: not stated.
In another data set the target is Glu57 (UniProt position 139, EKYGPEASAFT). As to conditions: not stated.
Another data set concerns the target Glu52 (UniProt position 134, PKKGVEKYGPE). As to conditions: not stated.
For the next data set, the target named is Glu73 (UniProt position 155, NAKKIEVEFDK). As to conditions: not stated.
The target of a further data set is His46 (UniProt position 128, TPETKHPKKGV). As to conditions: not stated.
The next data set concerns the target His124 (UniProt position 206, NTHEQHLRKSE). Conditions: not stated.
Another data set concerns the target His8 (UniProt position 90, STKKLHKEPAT). As to conditions: not stated.
For another data set, the target named is His121 (UniProt position 203, KPNNTHEQHLR). As to conditions: not stated.

In general, pKa refers to the pH at which an ionisable group is half protonated. As to “Hen egg-white lysozyme (HEWL, lysozyme C) (Gallus gallus)”, the pKa is reported as 10.80 in the data set with Lys96; 10.60 with Lys33; 2.66 with Asp18; 10.90 in the data set with Lys1; 3.68 with Asp52; 2.07 with Asp87. Moreover, the pKa in the data set with Asp119 is 3.20; with Lys97 it was 10.30; with Cterm129 it was 2.75; with Asp48 it was 1.60; with His15, 5.36; with Lys116, 10.40. For the same substance, the pKa is on record as 0.90 with Asp66; 4.09 in the data set with Asp101; 12.10 with Tyr53; 10.60 with Lys13; 9.80 with Tyr23; 7.90 in the data set with Nterm1. The pKa is recorded as 10.30 with Tyr20, 2.85 with Glu7 and 6.20 in the data set with Glu35.

Turning to “Staphylococcal nuclease (SNase), form used for the Asp/Glu pKa values (Staphylococcus aureus)”, the pKa was 2.82 in the data set with Glu10; 3.81 with Glu101; 3.76 with Glu135; 3.89 in the data set with Glu122; 3.75 with Glu129; 3.76 in the data set with Glu67. For the same substance, the pKa in the data set with Glu43 is 4.32; in the data set with Asp40, 3.87; in the data set with Asp95 it was 2.16; with Glu75, 3.26; in the data set with Glu57, 3.49; in the data set with Glu52, 3.93. Besides, the pKa with Glu73 is given as 3.31.

As for “Staphylococcal nuclease (SNase), form used for the histidine pKa values (Staphylococcus aureus)”, the pKa with His46 is 5.86; with His124, 5.73; with His8, 6.52; in the data set with His121, 5.30.
